Affinity (親和性), percent of radioactive counts bound and Kd data for three substances are collected here from patent JP2012233002A.

pKd: −log10 of the molar value. Where only a bound is given, the exact number is not on record here.

The target in assay [1] is 凝集型Aβ1−42 (aggregated synthetic Aβ1-42) (human) (UniProt P05067). Description: ELISA on aggregated synthetic Aβ1-42. A general note: In an ELISA, binding on a coated surface is turned into a signal by an enzyme label.
Assay [2] addresses 可溶性Aβ1−42 (soluble synthetic Aβ1-42 sonicated in DMSO, 125I-labelled) (human) (UniProt P05067). In words: capture radioimmunoassay, 50,000 CPM 125I-Aβ1-42 (or 125I-Aβ1-40).
The target of assay [3] is Aβ (β-amyloid peptide; length and physical form not specified in the assay) (human) (UniProt P05067). Description: BIAcore (SPR).
The target is the same in assay [4]. In words: Biacore (SPR). A general note: In SPR one partner is held on a chip, and binding of the other changes the refractive index at the surface.

In assay [1], “マウス10D5 (mouse monoclonal antibody 10D5)” registered an affinity (親和性) below 1 nM. Moreover, the percent of radioactive counts bound at 10 μg/ml antibody in assay [2] stood at 2%.

As usually defined, the pKd is −log10 of the Kd, conventionally taken in molar units. Low values mean a high Kd, high ones a low Kd. The substance マウス3D6 (mouse monoclonal antibody 3D6) had a pKd in assay [3] of 9.06.

“組換えマウス12A11Cγ2a(アイソタイプスイッチ12A11) (antibody)”: the pKd in assay [4] was 7.42.
